Source: patent CN111606996A

Biological target: 4D5 CAR on NK92-4D5-Canada cells
Assay: flow cytometry on NK92-4D5-Canada cells, 2μg 5D1 + BV421 goat anti-mouse

B1: 靶向4D5的鼠源单克隆抗体5D1 (antibody, V domains shown)
VH: QVQLEQSGAEFVRPGALVRLSCKASGFNIKDYYIHWVKQRPEQGLEWIGWIYPENDDTIYDPKFQGKASLTADTSSNTAYLQLSSLTSEDSAVYFCVRSGSDSSFDYWGQGTTLTVSS
VL: DIVMTQSTASLAVSLGQRATISCRASESVDSYDNSFMHWFQQKPGQPPKLLIYLASNLESGVPARFSGSGSRTDFTLTIDPVEADDAATYYCQQNNEDPFTFGSGTKLEIKR
Binder B1 has a 阳性细胞数在总细胞中占比 of 60.2%.
